Target: T1, 阴性对照蛋白BSA (UniProt P02769 25-607)
T1 construct: Negative control protein
Test: ELISA

T1 sequence (P02769 25-607 limits assumed): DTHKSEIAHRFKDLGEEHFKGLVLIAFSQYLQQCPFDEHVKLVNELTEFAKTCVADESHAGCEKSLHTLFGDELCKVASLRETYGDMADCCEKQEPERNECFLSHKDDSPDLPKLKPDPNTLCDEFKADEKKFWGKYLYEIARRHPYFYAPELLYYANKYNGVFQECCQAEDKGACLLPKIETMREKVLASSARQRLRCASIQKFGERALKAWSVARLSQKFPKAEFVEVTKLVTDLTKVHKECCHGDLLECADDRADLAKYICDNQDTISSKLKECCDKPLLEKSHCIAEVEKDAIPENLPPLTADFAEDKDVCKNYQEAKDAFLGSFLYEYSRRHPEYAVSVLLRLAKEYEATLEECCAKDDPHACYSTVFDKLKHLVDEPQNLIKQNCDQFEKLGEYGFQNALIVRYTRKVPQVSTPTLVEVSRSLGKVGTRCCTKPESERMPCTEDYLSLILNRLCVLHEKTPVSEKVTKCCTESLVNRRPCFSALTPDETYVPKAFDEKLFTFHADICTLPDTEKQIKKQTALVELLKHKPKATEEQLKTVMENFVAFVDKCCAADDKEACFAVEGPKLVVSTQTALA

- binding result: no binding
B1: 人源抗TLR4抗体Fab (Fab, V domains shown)
VH: EVQLVESGGGLVKPGRSLRLSCAASGFTFSSYAMHWVRQAPGKGLEWVAVISYDGSNKYYADSVKGRFTISRDNSENTLYLQMNSLRAEDTAVYYCAAYSSSSWFDPWGQGTLVTVSP
VL: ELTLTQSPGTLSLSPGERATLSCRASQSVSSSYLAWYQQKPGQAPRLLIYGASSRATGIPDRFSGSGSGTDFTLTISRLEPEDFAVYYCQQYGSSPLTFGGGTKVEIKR
notes: also called 抗TLR4基因工程抗体Fab; 抗TLR4的Fab
